Test results from US20230035659A1, “Compositions and Methods for TTR Gene Editing and Treating ATTR Amyloidosis Comprising a Corticosteroid or Use Thereof” (Intellia Therapeutics, Inc., priority 2019, published 2023).
Strand notation (5' to 3'): a small letter for the sugar, then the base; units joined by * are phosphorothioate-linked, units joined directly phosphodiester-linked; [ ] holds rarer units or linkages, { } end groups; capitals alone tell only the bases. m = 2'-O-methyl; r = 2'-OH (RNA)

How the values were obtained:
human TTR sequence = test: Liver editing (NGS) after LNP dosing of mice humanized with respect to the TTR gene; assay type: in vivo, mouse; conditions: LNP Formulation Numbers 1-5, 2 mg/kg total RNA, Cas9 mRNA SEQ ID NO: 2, 1:1 to guide
Experimental: Unless otherwise noted, CD-1 female mice, ranging from 6-10 weeks of age were used in each study. Animals were weighed and grouped according to body weight for preparing dosing solutions based on group average weight. LNPs were dosed via the lateral tail vein in a volume of 0.2 mL per animal (approximately 10 mL per kilogram body weight). […] Body weight was measured at twenty-four hours post-administration, and animals were euthanized at various time points by exsanguination via cardiac puncture under isoflourane anesthesia. Blood was collected into serum separator tubes or into tubes containing buffered sodium citrate for plasma as described herein. […]
Additional PCR was performed per the manufacturer's protocols (Illumina) to add chemistry for sequencing. […] The reads were aligned to a reference genome (e.g., the human reference genome (hg38), the cynomologus reference genome (mf5), the rat reference genome (rn6), or the mouse reference genome (mm10)) after eliminating those having low quality scores. The resulting files containing the reads were mapped to the reference genome (BAM files), where reads that overlapped the target region of interest were selected and the number of wild type reads versus the number of reads which contain an insertion, substitution, or deletion was calculated. […]

[1] = test system: TTR on-target site and potential off-target sites; test: Targeted amplicon sequencing of on-target and potential off-target sites in primary human hepatocytes treated with LNPs; assay type: cell-based; conditions: PHH; for highest concentration (of gRNA) at which the potential off-target sites were no longer detected: LNP 11 point dose response 0.001-46.55 nM gRNA; for indel rate observed at the on-target site / number of potential off-target sites identified by the oligo insertion assay at which indels were detected (low levels) / indels at the in silico predicted off-target sites: LNP with 100 ng Cas9 mRNA (SEQ ID NO: 1); for indel rate observed at the on-target site: near-saturating dose of LNP; for number of potential off-target sites identified by the oligo insertion assay at which indels were detected (low levels): near-saturating dose; for number of potential off-target sites identified by the oligo insertion assay at which indels were detected (low levels) / indels at the in silico predicted off-target sites / Indel Frequency, On-Target site: targeted amplicon sequencing; for on-target indel rate at the highest gRNA concentration without detected off-target sites: LNP, 0.57 nM (G000480) and 15.51 nM (G000486) gRNA
Experimental: The HEK293_Cas9 cells used in Example 5 for detecting potential off-targets constitutively overexpress Cas9, leading to a higher number of potential off-target “hits” as compared to a transient delivery paradigm in various cell types. […] Accordingly, potential off-target sites identified by an oligo insertion method as used in Example 5 may be validated using targeted sequencing of the identified potential off-target sites.
In one approach, primary hepatocytes are treated with LNPs comprising Cas9 mRNA and a sgRNA of interest (e.g., a sgRNA having potential off-target sites for evaluation). The primary hepatocytes are then lysed and primers flanking the potential off-target site(s) are used to generate an amplicon for NGS analysis. Identification of indels at a certain level may validate potential off-target site, whereas the lack of indels found at the potential off-target site may indicate a false positive in the HEK293_Cas9 cell assay.
Following the identification of potential off-target sites in […] via the oligo insertion assay, certain potential sites were further evaluated by targeted amplicon sequencing, e.g., as described in Example 6. In addition to the potential off-target sites identified by the oligo insertion strategy, additional potential off-target sites identified by in silico prediction were included in the analysis.
To this end, PHH were treated with LNPs comprising 100 ng of Cas9 mRNA (SEQ ID NO:1) and the gRNA of interest at 14.68 nM (in a 1:1 ratio by weight), as described in Example 4. The LNPs were prepared using the cross-flow procedure described above and purified and concentrated using PD-10 columns and Amicon centrifugal filter units, respectively. The LNPs were formulated with an N:P ratio of 6.0 and contained Lipid A, Cholesterol, DSPC, and PEG2k-DMG in a 50:38:9:2 molar ratio, respectively. Following LNP treatment, isolated genomic DNA was analyzed by NGS (e.g., as described in Examples 1 and 6) to determine whether indels could be detected at the potential off-target site, which would be indicative of a Cas9-mediated cleavage event. Tables 33 and 34 show the potential off-target sites that were evaluated for the gRNAs G000480 and G000486, respectively.
As shown in FIGS. 21A-B and 22A-B and Table 35 below, indels were detected at low levels for only two of the potential off-target sites identified by the oligo insertion assay for G000480, and only one for G000486. […] Further, indels were only detected at these sites using a near-saturating dose of LNP, as the indel rates observed at the on-target sites for G000480 and G000486 were ˜97% and ˜91%, respectively (See Table 35).
A dose response assay was then performed in order to determine the highest dose of LNP in which no off-targets were detected. PHH were treated with LNPs comprising either G000480 or G000486 as described in Example 4. The doses ranged across 11 points with respect to gRNA concentration (0.001 nM, 0.002 nM, 0.007 nM, 0.02 nM, 0.06 nM, 0.19 nM, 0.57 nM, 1.72 nM, 5.17 nM, 15.51 nM, and 46.55 nM).

[2] = LNP with 100 ng Cas9 mRNA and 14.68 nM gRNA

Molecule	liver editing of the human TTR sequence (mean values) (human TTR sequence)	highest concentration (of gRNA) at which the potential off-target sites were no longer detected [1]	indel rate observed at the on-target site [1]	number of potential off-target sites identified by the oligo insertion assay at which indels were detected (low levels) [1]	indels at the in silico predicted off-target sites [1]	Indel Frequency, Off-Target site INS-OT.2 ([1]; LNP with 100 ng Cas9 mRNA and 14.68 nM gRNA, G000480 site INS-OT.2 (chr2: 192658562-192658582))	Indel Frequency, Off-Target site INS-OT.4 (of G000480) ([1]; LNP with 100 ng Cas9 mRNA and 14.68 nM gRNA, G000480 site INS-OT.4 (chr20: 9216118-9216138))	Indel Frequency, On-Target site [1, 2]	on-target indel rate at the highest gRNA concentration without detected off-target sites [1]	Indel Frequency, Off-Target site INS-OT.4 (of G000486) ([1]; LNP with 100 ng Cas9 mRNA and 14.68 nM gRNA, G000486 site INS-OT.4 (chr5: 91397023-91397043))
G000494: TTR sgRNA modified sequence, Human, SEQ ID NO: 101; guide sequence of CR003360 (nucleic acid) guide: mG*mU*mG*rArGrUrCrUrGrGrArGrArGrCrUrGrCrArUrGrUrUrUrUrArGrAmGmCmUmAmGmAmAmAmUmAmGmCrArArGrUrUrArArArArUrArArGrGrCrUrArGrUrCrCrGrUrUrArUrCrAmAmCmUmUmGmAmAmAmAmAmGmUmGmGmCmAmCmCmGmAmGmUmCmGmGmUmGmCmU*mU*mU*mU	~60%									
G000499: TTR sgRNA modified sequence, Human, SEQ ID NO: 106; guide sequence of CR005303 (nucleic acid) guide: mU*mG*mA*rArUrCrCrArArGrUrGrUrCrCrUrCrUrGrArGrUrUrUrUrArGrAmGmCmUmAmGmAmAmAmUmAmGmCrArArGrUrUrArArArArUrArArGrGrCrUrArGrUrCrCrGrUrUrArUrCrAmAmCmUmUmGmAmAmAmAmAmGmUmGmGmCmAmCmCmGmAmGmUmCmGmGmUmGmCmU*mU*mU*mU	~60%									
G000480: TTR sgRNA modified sequence, Human, SEQ ID NO: 87; guide sequence of CR003353 (nucleic acid) guide: mA*mA*mA*rGrGrCrUrGrCrUrGrArUrGrArCrArCrCrUrGrUrUrUrUrArGrAmGmCmUmAmGmAmAmAmUmAmGmCrArArGrUrUrArArArArUrArArGrGrCrUrArGrUrCrCrGrUrUrArUrCrAmAmCmUmUmGmAmAmAmAmAmGmUmGmGmCmAmCmCmGmAmGmUmCmGmGmUmGmCmU*mU*mU*mU		0.57 nM	~97%	two	No indels were detected	1.43%	0.97%	97.33%	84.60%	
G000486: TTR sgRNA modified sequence, Human, SEQ ID NO: 93; guide sequence of CR003339 (nucleic acid) guide: mA*mC*mA*rCrArArArUrArCrCrArGrUrCrCrArGrCrArGrUrUrUrUrArGrAmGmCmUmAmGmAmAmAmUmAmGmCrArArGrUrUrArArArArUrArArGrGrCrUrArGrUrCrCrGrUrUrArUrCrAmAmCmUmUmGmAmAmAmAmAmGmUmGmGmCmAmCmCmGmAmGmUmCmGmGmUmGmCmU*mU*mU*mU		15.51 nM	~91%	one	No indels were detected			91.33%	89.50%	0.47%
